Experimental data published in patent publication US20070093418A1 (Amgen, published 2007).
Blank lines part the entries; values can stand above or below the binder they belong to.

Tests used:
[1] = target: T1, Negative Control Peptibody 4883 (Homo sapiens (Human), UniProt P0DOX5 223-449 = IgG part); assay: ELISA on conditioned medium with N-terminal hAng-2 (aa 1-254, C-terminal 6xHis); O.D. 370; pCDNA3 vector-control medium as blank
Procedure: (§1) The binding epitope of anti-Ang-2 antibodies and peptibodies was determined by their ability to bind the three versions of human hAng-2 by ELISA according to the following protocol: a high-binding 96-well assay plate was coated with 100 μl of conditioned media per well, and incubated at 37° C. for 1 hour. Conditioned media was aspirated, and the plate was blocked with 200 μl per well of 5% BSA in PBS at room temperature for 1 hour. The blocking solution was then aspirated. […] The wells were washed 4 times with 200 μl of 0.1% Tween in PBS. 100 μl per well of HRP-conjugated goat anti-human IgG or goat anti-mouse IgG were added, and incubated at room temperature for 45 minutes. The wells were then washed with 200 μl of 0.1% Tween in PBS 4 times. 100 μl per well of TMB substrate was then added. O.D. was read at 370 nm.

Con4 (C) = target: T2, Con4 (C) (Homo sapiens (Human), UniProt P0DOX5 223-449 = IgG part); assay: as above
T2 construct: also called TN8-Con4-C
Procedure: as §1

[2] = target: T3, Tie-2-Fc (R&D Systems, catalog number 313-TI) (human, UniProt Q02763 23-748); assay: as above
T3 construct: extracellular domain; bought; also called hTie2-Fc; Recombinant Human Tie-2-Fc Chimera; not shown: Fc of the bought chimera
Procedure: as §1

2xCon4 (C) 1K [3] = target: T4, 2xCon4 (C) 1K; assay: KinExA solution competition, 30 pM 2xCON4-C; soluble huAng-2 varied, competing with huAng-2 on beads
T4 construct: also called 2×Con4-C; 2×CON4-C (Pb5714)
From the text: (§2) Reacti-Gel 6× beads (Pierce, Rockford, Ill.) were pre-coated with huAng-2 and blocked with BSA. […] The amount of the bead-bound peptibody was quantified by fluorescent (Cy5) labeled goat anti-human-Fc antibody (Jackson Immuno Research, West Grove, Pa.). The binding signal is proportional to the concentration of free peptibody at equilibrium.
(§3) The dissociation equilibrium constant (KD) was obtained from nonlinear regression of the competition curves using a dual-curve one-site homogeneous binding model (KinE×™ software).

2xCon4 (C) 1K [4] = target: T4, 2xCon4 (C) 1K; assay: KinExA solution competition, 10 pM 2xCON4-C; soluble huAng-2 varied, competing with huAng-2 on beads
From the text: as §2, §3

[5] = target: T1, Negative Control Peptibody 4883; assay: ELISA on conditioned medium with C-terminal hAng-2 (aa 255-495, C-terminal 6xHis); O.D. 370; pCDNA3 vector-control medium as blank
Procedure: as §1

B1: N-term hAng2 (aa 1-254) (ligand)
chain: YNNFRKSMDSIGKKQYQVQHGSCSYTFLLPEMDNCRSSSSPYVSNAVQRDAPLEYDDSVQRLQVLENIMENNTQWLMKLENYIQDNMKKEMVEIQQNAVQNQTAVMIEIGTNLLNQTAEQTRKLTDVEAQVLNQTTRLELQLLEHSLSTNKLEKQILDQTSEINKLQDKNSFLEKKVLAMEDKHIIQLQSIKEEKDQLQVLVSKQNSIIEELEKKIVTATVNNSVLQKQQHDLMETHHHHHH
notes: also called N-terminal (amino acids 1-254) human Ang-2
binding result [1]: no binding (tested: 1 µg/ml (single concentration)) | binding result (Con4 (C)): no binding (tested: 1 µg/ml (single concentration)) | binding result [2]: no binding (tested: 1 µg/ml (single concentration))

IC50 (read off the curve) (2xCon4 (C) 1K [3]): ~0.04 nM | IC50 (read off the curve) (2xCon4 (C) 1K [4]): ~0.01 nM
B2: human angiopoietin-2 (Ang-2) (ligand, UniProt O15123 19-496, looked up)
chain: YNNFRKSMDSIGKKQYQVQHGSCSYTFLLPEMDNCRSSSSPYVSNAVQRDAPLEYDDSVQRLQVLENIMENNTQWLMKLENYIQDNMKKEMVEIQQNAVQNQTAVMIEIGTNLLNQTAEQTRKLTDVEAQVLNQTTRLELQLLEHSLSTNKLEKQILDQTSEINKLQDKNSFLEKKVLAMEDKHIIQLQSIKEEKDQLQVLVSKQNSIIEELEKKIVTATVNNSVLQKQQHDLMETVNNLLTMMSTSNSAKDPTVAKEEQISFRDCAEVFKSGHTTNGIYTLTFPNSTEEIKAYCDMEAGGGGWTIIQRREDGSVDFQRTWKEYKVGFGNPSGEYWLGNEFVSQLTNQQRYVLKIHLKDWEGNEAYSLYEHFYLSSEELNYRIHLKGLTGTAGKISSISQPGNDFSTKDGDNDKCICKCSQMLTGGWWFDACGPSNLNGMYYPQRQNTNKFNGIKWYYWKGSGYSLKATTMMIRPADF
notes: Several preparations are used (R&D Systems protein, biotinylated R&D protein, 293T conditioned media); also called hAng-2; huAng-2

B3: C-term of hAng2 (aa 255-495) (ligand)
chain: VNNLLTMMSTSNSKDPTVAKEEQISFRDCAEVFKSGHTTNGIYTLTFPNSTEEIKAYCDMEAGGGGWTIIQRREDGSVDFQRTWKEYKVGFGNPSGEYWLGNEFVSQLTNQQRYVLKIHLKDWEGNEAYSLYEHFYLSSEELNYRIHLKGLTGTAGKISSISQPGNDFSTKDGDNDKCICKCSQMLTGGWWFDACGPSNLNGMYYPQRQNTNKFNGIKWYYWKGSGYSLKATTMMIRPADFHHHHHH
notes: also called C-terminal (amino acids 255-495) human Ang-2
binding result [5]: no binding (tested: 1 µg/ml (single concentration))
